Measured values from article PMC4114240.
“And” between values parts separate entries of the source, which are not always exact repeats. Equal values may be shown once.

Biological target: Xanthomonas campestris pv. campestris RpfB with an N-terminal hexahistidine tag (Xanthomonas campestris pv. campestris 8004)
Assay: SEC

“Xanthomonas campestris pv. campestris RpfB with an N-terminal hexahistidine tag (enzyme)” was tested. Which stoichiometry N did it give?
The stoichiometry N was 3 and 6.
